Laboratory results as given in US20180037631A1 (Bristol-Myers Squibb, published 2018).

molecular target: T1, EGFR on the surface of human tumour cells (A431, H292) (human, UniProt P00533 25-1210); assay: cell-based or functional assay

Row | % inhibition of EGFR phosphorylation at 100 nM binder, cell-based assay [%] | Binder
1 | 86.5 | E84 (designed binder) 10Fn3 domain: MGVSDVPRDLEVVAATPTSLLISWTLHRKNYQYYRITYGETGGNSPVQEFTVPGGVVTATISGLKPGVDYTITVYAVTDYYNPATHEYDYRTTPISINYRTEIDKPSQ
2 | 78.8 | E73 (designed binder) 10Fn3 domain: MGVSDVPRDLEVVVATPTSLLISWTKLLGGYQYYRITYGETGGNSPVQEFTVPGPVYTATISGLKPGVDYTITVYAVTDFFNPRTHEYQYHTTPISINYRTEIDKPSQ
3 | 76.5 | E75 (designed binder) 10Fn3 domain: MGVSDVPRDLEVVAATPTSLLISWAAGRATYQYYRITYGETGGNSPVQEFTVPYDVTTATISGLKPGVDYTITVYAVTDFYNPATHEYYYETTPISINYRTEIDKPSQ
4 | 75.1 | E81 (designed binder) 10Fn3 domain: MGVSDVPRDLEVVAATPTSLLISWDNNSNSYQYYRITYGETGGNSPVQEFTVPYDLRTATISGLKPGVDYTITVYAVTDYKPHTEGEHTYHESPISINYRTEIDKPSQ
5 | 77.2 | E82 (designed binder) 10Fn3 domain: MGVSDVPRDLEVVAATPTSLLISWRVLVDMYQYYRITYGETGGNSPVQEFTVPGGVLTATISGLKPGVDYTITVYAVTDYKPHVDGPHTYYESPISINYRTEIDKPSQ
6 | 90.7 | E83 (designed binder) 10Fn3 domain: MGVSDVPRDLEVVAATPTSLLISWMFVGMSYQYYRITYGETGGNSPVQEFTVPYGVHTATISGLKPGVDYTITVYAVTDYFNPATHEYIYHVTPISINYRTEIDKPSQ
7 | 79 | E76 (designed binder) 10Fn3 domain: MGVSDVPRDLEVVAATPTSLLISWYSQPLTYQYYRITYGETGGNSPVQEFTVPHDVNTATISGLKPGVDYTITVYAVTDFYNPETHEYTYHLTPISINYRTEIDKPSQ
8 | 80.9 | E74 (designed binder) 10Fn3 domain: MGVSDVPRDLEVVAATPTSLLISWRASGGLYQYYRITYGETGGNSPVQEFTVPGSVNTATISGLKPGVDYTITVYAVTDFYNPATYEYIYHTTPISINYRTEIDKPSQ
9 | 99.2 | E79 (designed binder) 10Fn3 domain: MGVSDVPRDLEVVAATPTSLLISWQDTSSYHQYYRITYGETGGNSPVQEFTVPGGVRTATISGLKPGVDYTITVYAVTDYFNPSTHEYIYRTIPISINYRTEIDKPSQ
10 | 89.3 | E85 (designed binder) 10Fn3 domain: MGVSDVPRDLEVVAATPTSLLISWTQGSTHYQYYRITYGETGGNSPVQEFTVPGMVYTATISGLKPGVDYTITVYAVTDYFDRSTHEYKYRTTPISINYRTEIDKPSQ
11 | 81.1 | E77 (designed binder) 10Fn3 domain: MGVSDVPRDLEVVAATPTSLLISWSSATRPYQYYRITYGETGGNSPVQEFTVPGGVRTATISGLKPGVDYTITVYAVTDFFNPTTHEYYYHTTPISINYRTEIDKPSQ
12 | 94.3 | E4 (designed binder) 10Fn3 domain: MGVSDVPRDLEVVAATPTSLLISWHERDGSRQYYRITYGETGGNSPVQEFTVPGGVRTATISGLKPGVDYTITVYAVTDYFNPTTHEYIYQTTPISINYRTEIDKPSQ
13 | 89.6 | E80 (designed binder) 10Fn3 domain: MGVSDVPRDLEVVAATPTSLLISWSSSHRRYQYYRITYGETGGNSPVQEFTVPGSVATATISGLKPGVDYTITVYAVTDYFNPDTHEYLYHATPISINYRTEIDKPSQ
14 | 76.9 | E78 (designed binder) 10Fn3 domain: MGVSDVPRDLEVVAATPTSLLISWSVERSVYQYYRITYGETGGNSPVQEFTVPGGVRTATISGLKPGVDYTITVYAVTDYYNPSTHEYNYLTTPISINYRTEIDKPSQ

molecular target: T1, EGFR on the surface of human tumour …; assay: cell-based or functional assay; remark: another data set of the same source

Row | % inhibition of EGFR phosphorylation at 100 nM binder, cell-based assay [%] | Binder
15 | 85.1 | E69 (designed binder) 10Fn3 domain: MGVSDVPRDLEVVAATPTSLLISWHAGMAVYQYYRITYGETGGNSPVQEFTVPGDVLTATISGLKPGVDYTITVYAVTDFFNPVTHEYMYHTIPISINYRTEIDKPSQ
16 | 80.4 | E71 (designed binder) 10Fn3 domain: MGVSDVPRDLEVVAATPTSLLISWWFGTSSYQYYRITYGETGGNSPVQEFTVPGDLKTATISGLKPGVDYTITVYAVTDYFNPVTHEYEYHTTPISINYRTEIDKPSQ
17 | 76.8 | E70 (designed binder) 10Fn3 domain: MGVSDVPRDLEVVAATPTSLLISWVSARGRYQYYRITYGETGGNSPVQEFTVPGGVRTATISGLKPGVDYTITVYAVTDYYNLETYEYHYYRTPISINYRTEIDKPSQ
18 | 82.8 | E72 (designed binder) 10Fn3 domain: MGVSDVPRDLEVVAATPTSLLISWSATRTLYQYYRITYGETGGNSPVQEFTVPYDVHTATISGLKPGVDYTITVYAVTDYYNMVTYEYNYHLTPISINYRTEIDKPSQ

molecular target: T1, EGFR on the surface of human tumour …; assay: cell-based or functional assay; remark: another data set of the same source

Row | % inhibition of EGFR phosphorylation at 100 nM binder, cell-based assay [%] | Binder
19 | 90.9 | E101 (designed binder) 10Fn3 domain: MGVSDVPRDLEVVAATPTSLLISWDAPAVTYQYYRITYGETGGNSPVQEFTVPHDLVTATISGLKPGVDYTITVYAVTDYKPHADGPHTYHESPISINYRTEIDKPSQ
20 | 90.9 | E109 (designed binder) 10Fn3 domain: MGVSDVPRDLEVVAATPTSLLISWDAPTSRYQYYRITYGETGGNSPVQEFTVPHDLVTATISGLKPGVDYTITVYAVTDYKPHADGPHTYHESPISINYRTEIDKPSQ
21 | 87 | E105 (designed binder) 10Fn3 domain: MGVSDVPRDLEVVAATPTSLLISWDAPTSRYQYYRITYGETGGNSPVQEFTVPGGLSTATISGLKPGVDYTITVYAVTDYKPHADGPHTYHESPISINYRTEIDKPSQ
22 | 80 | E108 (designed binder) 10Fn3 domain: MGVSDVPRDLEVVAATPTSLLISWDAPAVTYQYYRITYGETGGNSPVQEFTVPGGVRTATISGLKPGVDYTITVYAVTDYKPHADGPHTYHESPISINYRTEIDKPSQ
23 | 84.7 | E99 (designed binder) 10Fn3 domain: MGVSDVPRDLEVVAATPTSLLISWDAPTSRYQYYRITYGETGGNSPVQEFTVPGGVRTATISGLKPGVDYTITVYAVTDYKPHADGPHTYHEYPISINYRTEIDKPSQ
24 | 86.2 | E112 (designed binder) 10Fn3 domain: MGVSDVPRDLEVVAATPTSLLISWDAGAVTYQYYRITYGETGGNSPVQEFTVPGGVRTATISGLKPGVDYTITVYAVTDYKPHADGPHTYHEYPISINYRTEIDKPSQ
25 | 81.3 | E110 (designed binder) 10Fn3 domain: MGVSDVPRDLEVVAATPTSLLISWDAGAVTYQYYRITYGETGGNSPVQEFTVPGGVRTATISGLKPGVDYTITVYAVTDYKPHADGPHTYHESPISINYRTEIDKPSQ
26 | 76.3 | E103 (designed binder) 10Fn3 domain: MGVSDVPRDLEVVAATPTSLLISWTPANKSYQYYRITYGETGGNSPVQEFTVPGGVRTATISGLKPGVDYTITVYAVTNMMHVEYSEYPISINYRTEIDKPSQ
27 | 85.5 | E111 (designed binder) 10Fn3 domain: MGVSDVPRDLEVVAATPTSLLISWDAPTSRYQYYRITYGETGGNSPVQEFTVPHDLVTATISGLKPGVDYTITVYAVTNMMHVEYSEYPISINYRTEIDKPSQ
28 | 75.8 | E107 (designed binder) 10Fn3 domain: MGVSDVPRDLEVVAATPTSLLISWDSGRGSYQYYRITYGETGGNSPVQEFTVPYDVYTATISGLKPGVDYTITVYAVTDMMHVEYTEHPISINYRTEIDKPSQH
29 | 83.3 | E100 (designed binder) 10Fn3 domain: MGVSDVPRDLEVVAATPTSLLISWTPANKSYQYYRITYGETGGNSPVQEFTVPHDLVTATISGLKPGVDYTITVYAVTDHKPHADGPHTYHEYPISINYRTEIDKPSQ
30 | 84 | E106 (designed binder) 10Fn3 domain: MGVSDVPRDLEVVAATPTSLLISWDAPAVTYQYYRITYGETGGNSPVQEFTVPYDVYTATISGLKPGVDYTITVYAVTDYKPHADGPHTYHEYPISINYRTEIDKPSQ
31 | 89.3 | E104 (designed binder) 10Fn3 domain: MGVSDVPRDLEVVAATPTSLLISWDAGAVTYQYYRITYGETGGNSPVQEFTVPHDLVTATISGLKPGVDYTITVYAVTDHKPHADGPHTYHEYPISINYRTEIDKPSQ
32 | 80 | E102 (designed binder) 10Fn3 domain: MGVSDVPRDLEVVAATPTSLLISWTPANKSYQYYRITYGETGGNSPVQEFTVPHDLVTATISGLKPGVDYTITVYAVTDHKPHADGPHTYHESPISINYRTEIDKPSQ
